Measurements: PMC6879633
pKd: −log10 of the molar value.

Assays:
[1] = target: WT-A34F/V39L double mutant of wild-type Gβ1 (Streptococcus); assay: SEC; analytical size-exclusion chromatography, Superdex 200 Increase; 1 mL of protein at 1 mM loaded; 10 mM sodium phosphate buffer pH 7.4, 1 mL/min; elution time compared with monomeric (wild type) and dimeric (WT-A34F) controls; self-association, monomer or dimer
[2] = target: WT-A34F/V39L double mutant of wild-type Gβ1 (Streptococcus); assay: NMR titration
[3] = target: WT-A34F, A34F point mutant of wild-type Gβ1 (Streptococcus); assay: SEC; analytical size-exclusion chromatography, Superdex 200 Increase; 1 mL of protein at 1 mM loaded; 10 mM sodium phosphate buffer pH 7.4, 1 mL/min; elution time compared with monomeric (wild type) and dimeric (WT-A34F) controls; self-association, monomer or dimer

Substance | stoichiometry N [1] | pKd [2] | stoichiometry N [3]
WT-A34F/V39L double mutant of wild-type Gβ1 (domain or fragment) | 2 | 3.94 | –
WT-A34F, A34F point mutant of wild-type Gβ1 (domain or fragment) | – | – | 2
